The data set deals with Mtb UvrD1 WT (Mycobacterium tuberculosis H37Rv, UniProt P9WMQ1 1-771). The data set can be described thus: tryptophan fluorescence dissociation kinetics.
Mtb UvrD1 WT, sequence (P9WMQ1 whole entry): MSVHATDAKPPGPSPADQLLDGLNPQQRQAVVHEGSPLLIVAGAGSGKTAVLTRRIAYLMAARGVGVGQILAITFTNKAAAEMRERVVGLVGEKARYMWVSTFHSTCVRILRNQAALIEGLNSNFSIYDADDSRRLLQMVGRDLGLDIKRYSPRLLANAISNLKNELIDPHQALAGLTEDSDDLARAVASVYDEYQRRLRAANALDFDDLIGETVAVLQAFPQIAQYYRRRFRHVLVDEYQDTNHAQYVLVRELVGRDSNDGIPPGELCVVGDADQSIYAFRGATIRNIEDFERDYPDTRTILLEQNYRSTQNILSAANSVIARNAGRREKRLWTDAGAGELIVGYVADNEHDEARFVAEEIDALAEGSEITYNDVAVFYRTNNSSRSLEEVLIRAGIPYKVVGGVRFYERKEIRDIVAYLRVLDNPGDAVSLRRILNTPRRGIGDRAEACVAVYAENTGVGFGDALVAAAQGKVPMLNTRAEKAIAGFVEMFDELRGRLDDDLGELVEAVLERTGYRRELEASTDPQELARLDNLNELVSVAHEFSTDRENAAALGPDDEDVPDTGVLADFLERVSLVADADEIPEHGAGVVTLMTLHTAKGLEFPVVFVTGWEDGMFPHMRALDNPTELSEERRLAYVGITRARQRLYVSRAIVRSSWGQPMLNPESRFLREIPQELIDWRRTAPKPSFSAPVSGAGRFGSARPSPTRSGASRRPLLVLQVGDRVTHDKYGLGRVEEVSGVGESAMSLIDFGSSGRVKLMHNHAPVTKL

B1: (dT)100 (ssDNA)
DNA: TTTTTTTTTTTTTTTTTTTTTTTTTTTTTTTTTTTTTTTTTTTTTTTTTTTTTTTTTTTTTTTTTTTTTTTTTTTTTTTTTTTTTTTTTTTTTTTTTTTT
For B1, the binding result was “binds”.

For the origin of these results see PMC8872793.
